The values that follow come from patent US20230303994.

B1: trypsin variant SEQ ID NO: 53 (protein)
chain: IVGGYTCAANSIPYQVSLNSGSHRCGGSLINSQWVVSAAHCYKPRIQVRLGEHNIDVLEGNEQFINAAKIITHPNFNGNTLDNDIMLIKLSSPATLNSRVATVSLPRSCAAAGTECLISGWGNTKSSGSSYPSLLQCLKAPVLSDSSCKSSYPGQITGNMICVGFLEGGKDACQGDSGGPVVCNGQLQGIVSSGYGCAQKNKPGVYTKVCNYVNWIQQTIAAN
B2: trypsin variant SEQ ID NO: 78 (protein)
chain: B1 chain with P44S, D56H, G78P, R99H, R107T, K125C
B3: trypsin variant SEQ ID NO: 9 (protein)
chain: B1 chain with P44S, R99Y
B4: trypsin variant SEQ ID NO: 74 (protein)
chain: B1 chain with P44S, G78P
B5: trypsin variant SEQ ID NO: 73 (protein)
chain: B1 chain with P44S, G78A
B6: trypsin variant SEQ ID NO: 79 (protein)
chain: B1 chain with D56H, G78P, R99H, K125A, Y131M
B7: trypsin variant SEQ ID NO: 56 (protein)
chain: B1 chain with P44S, D56N
B8: trypsin variant SEQ ID NO: 57 (protein)
chain: B1 chain with P44S, D56H
B9: trypsin variant SEQ ID NO: 80 (protein)
chain: B1 chain with P44S, D56H, G78P, R99H, R107T, K125S, Y131M
B10: trypsin variant SEQ ID NO: 77 (protein)
chain: B1 chain with D56H, R99H, R107T, K125C, Y131M
B11: trypsin variant SEQ ID NO: 32 (protein)
chain: B1 chain with P44S
B12: trypsin variant SEQ ID NO: 29 (protein)
chain: B1 chain with R24L, P44S
B13: trypsin variant SEQ ID NO: 50 (protein)
chain: B1 chain with R24N, P44S
B14: trypsin variant SEQ ID NO: 6 (protein)
chain: B1 chain with P44S, R99F
B15: trypsin variant SEQ ID NO: 49 (protein)
chain: B1 chain with R24T, P44S
B16: trypsin variant SEQ ID NO: 46 (protein)
chain: B1 chain with R24A, P44S
B17: trypsin variant SEQ ID NO: 37 (protein)
chain: B1 chain with P44S, Y131T
B18: trypsin variant SEQ ID NO: 30 (protein)
chain: B1 chain with R24S, P44S
B19: trypsin variant SEQ ID NO: 51 (protein)
chain: B1 chain with R24K, P44S
B20: trypsin variant SEQ ID NO: 44 (protein)
chain: B1 chain with P44S, A172S
B21: trypsin variant SEQ ID NO: 27 (protein)
chain: B1 chain with P44S, K170N
B22: trypsin variant SEQ ID NO: 45 (protein)
chain: B1 chain with P44S, A172C
B23: trypsin variant SEQ ID NO: 5 (protein)
chain: B1 chain with P44S, R99L
B24: trypsin variant SEQ ID NO: 33 (protein)
chain: B1 chain with P44S, R107T
B25: trypsin variant SEQ ID NO: 28 (protein)
chain: B1 chain with R24V, P44S
B26: trypsin variant SEQ ID NO: 35 (protein)
chain: B1 chain with P44S, Y131L
B27: trypsin variant SEQ ID NO: 47 (protein)
chain: B1 chain with R24I, P44S
B28: trypsin variant SEQ ID NO: 38 (protein)
chain: B1 chain with P44S, Y131C
B29: trypsin variant SEQ ID NO: 34 (protein)
chain: B1 chain with P44S, Y131A
B30: trypsin variant SEQ ID NO: 26 (protein)
chain: B1 chain with P44S, K170G
B31: trypsin variant SEQ ID NO: 40 (protein)
chain: B1 chain with P44S, Y131E
B32: trypsin variant SEQ ID NO: 39 (protein)
chain: B1 chain with P44S, Y131N
B33: trypsin variant SEQ ID NO: 43 (protein)
chain: B1 chain with P44S, A172T
B34: trypsin variant SEQ ID NO: 48 (protein)
chain: B1 chain with R24M, P44S
B35: trypsin variant SEQ ID NO: 42 (protein)
chain: B1 chain with P44S
B36: trypsin variant SEQ ID NO: 31 (protein)
chain: B1 chain with R24Q, P44S

Numbering of substitutions follows the chain as printed.

For one data set, the target named is pre-pro-insulin glargine.
B1 yielded a Purity Insulin Glargine of 81.3 area %, a Yield above 80%, a desArg below 0.5 area % and a desThr of 2.1 area %.
Protein B2 came in with a Purity Insulin Glargine of 85.1 area %, a Yield above 90%, a desArg of 0.5 area % and a desThr of 1.6 area %.
B3 gave a Purity Insulin Glargine of 85.2 area %, a Yield above 90%, a desArg below 0.5 area % and a desThr of 3.6 area %.
B4 came in with a Purity Insulin Glargine of 82.4 area %, a Yield above 80%, a desArg below 0.5 area % and a desThr of 2.1 area %.
In the case of B5, the Purity Insulin Glargine stood at 83 area %, the Yield is above 90%, the desArg is below 0.5 area % and the desThr came out at 2.2 area %.
For B6, in that order: 87.8 area %, above 90%, 0.7 area % and 0.3 area %.
With B7, the Purity Insulin Glargine was determined as 85.3 area %, the Yield is above 90%, the desArg is below 0.5 area % and the desThr came out at 2 area %.
B8: the Purity Insulin Glargine came to 87.5 area %, the Yield is above 90%, the desArg is below 0.5 area % and the desThr was found to be 2.3 area %.
Regarding B9, the Purity Insulin Glargine was found to be 90.1 area %, the Yield was above 90%, the desArg was 0.9 area % and the desThr was 0.5 area %.
As for B10, the Purity Insulin Glargine turned out to be 88.2 area %, the Yield is above 90%, the desArg is 0.5 area % and the desThr turned out to be 1.6 area %.

The target in the next data set is pre-pro-human insulin.
On to B1, for which the “Activity PPI cleavage” value is “yes” and the Selectivity is reported as above 90%.
For B11, in that order: “yes” and above 90%.
For B12, the “Activity PPI cleavage” value was “yes” and the Selectivity is reported as above 90%.
For B2, in that order: “yes” and above 80%.
Take B13: the “Activity PPI cleavage” value was “yes” and the Selectivity is on record as above 65%.
Turning to B14, the “Activity PPI cleavage” value was “yes” and the Selectivity was above 90%.
Consider B3, for which the “Activity PPI cleavage” value is recorded as “yes” and the Selectivity was above 90%.
As to B15, the “Activity PPI cleavage” value is listed as “yes” and the Selectivity is above 80%.
Regarding B4, the “Activity PPI cleavage” value is on record as “yes” and the Selectivity is above 90%.
Take B5: the “Activity PPI cleavage” value is “yes” and the Selectivity is reported as above 90%.
With B16, the “Activity PPI cleavage” value was “yes” and the Selectivity is above 70%.
B17: the “Activity PPI cleavage” value is on record as “yes” and the Selectivity is above 90%.
Regarding B18, the “Activity PPI cleavage” value is listed as “yes” and the Selectivity was above 70%.
For B19, the “Activity PPI cleavage” value is on record as “yes” and the Selectivity is reported as above 70%.
For B20, in that order: “yes” and above 80%.
On to B21, for which the “Activity PPI cleavage” value is listed as “yes” and the Selectivity is on record as above 80%.
For B22, in that order: “yes” and above 65%.
Regarding B23, the “Activity PPI cleavage” value is recorded as “yes” and the Selectivity is above 90%.
Taken in the same sequence, the figures for B6 were “yes” and above 90%.
For B7, in that order: “yes” and above 90%.
Consider B24, for which the “Activity PPI cleavage” value is listed as “yes” and the Selectivity is listed as above 90%.
For B25, in that order: “yes” and above 90%.
Consider B26, for which the “Activity PPI cleavage” value was “yes” and the Selectivity is above 90%.
Regarding B27, the “Activity PPI cleavage” value is reported as “yes” and the Selectivity is above 90%.
For B28, in that order: “yes” and above 80%.
For B29, the “Activity PPI cleavage” value was “yes” and the Selectivity is above 90%.
As for B30, the “Activity PPI cleavage” value is “yes” and the Selectivity is on record as above 80%.
As to B8, the “Activity PPI cleavage” value is recorded as “yes” and the Selectivity is above 90%.
B31: the “Activity PPI cleavage” value was “yes” and the Selectivity is on record as above 80%.
Taken in the same sequence, the figures for B32 were “yes” and above 90%.
For the protein B9, the “Activity PPI cleavage” value is recorded as “yes” and the Selectivity is reported as above 90%.
For B33, the “Activity PPI cleavage” value is “yes” and the Selectivity is reported as above 80%.
For the protein B34, the “Activity PPI cleavage” value was “yes” and the Selectivity was above 80%.
For B10, in that order: “yes” and above 90%.
In the case of B35, the “Activity PPI cleavage” value is recorded as “yes” and the Selectivity is above 90%.
Turning to B36, the “Activity PPI cleavage” value was “yes” and the Selectivity is above 62.1%.
